From US20240043528A1, “NANOBODY-OGA FUSIONS AND USES THEREOF” (President and Fellows of Harvard College, priority 2020, published 2024)
“Also recorded” adds a separate entry of the source.

T1: OGT with C-terminal His tag (human, UniProt O15294 1-1046, limits assumed)
T1 construct: also called OGT-His; pCMV3-OGT-His; not shown: C-terminal His tag
T1 sequence (looked up): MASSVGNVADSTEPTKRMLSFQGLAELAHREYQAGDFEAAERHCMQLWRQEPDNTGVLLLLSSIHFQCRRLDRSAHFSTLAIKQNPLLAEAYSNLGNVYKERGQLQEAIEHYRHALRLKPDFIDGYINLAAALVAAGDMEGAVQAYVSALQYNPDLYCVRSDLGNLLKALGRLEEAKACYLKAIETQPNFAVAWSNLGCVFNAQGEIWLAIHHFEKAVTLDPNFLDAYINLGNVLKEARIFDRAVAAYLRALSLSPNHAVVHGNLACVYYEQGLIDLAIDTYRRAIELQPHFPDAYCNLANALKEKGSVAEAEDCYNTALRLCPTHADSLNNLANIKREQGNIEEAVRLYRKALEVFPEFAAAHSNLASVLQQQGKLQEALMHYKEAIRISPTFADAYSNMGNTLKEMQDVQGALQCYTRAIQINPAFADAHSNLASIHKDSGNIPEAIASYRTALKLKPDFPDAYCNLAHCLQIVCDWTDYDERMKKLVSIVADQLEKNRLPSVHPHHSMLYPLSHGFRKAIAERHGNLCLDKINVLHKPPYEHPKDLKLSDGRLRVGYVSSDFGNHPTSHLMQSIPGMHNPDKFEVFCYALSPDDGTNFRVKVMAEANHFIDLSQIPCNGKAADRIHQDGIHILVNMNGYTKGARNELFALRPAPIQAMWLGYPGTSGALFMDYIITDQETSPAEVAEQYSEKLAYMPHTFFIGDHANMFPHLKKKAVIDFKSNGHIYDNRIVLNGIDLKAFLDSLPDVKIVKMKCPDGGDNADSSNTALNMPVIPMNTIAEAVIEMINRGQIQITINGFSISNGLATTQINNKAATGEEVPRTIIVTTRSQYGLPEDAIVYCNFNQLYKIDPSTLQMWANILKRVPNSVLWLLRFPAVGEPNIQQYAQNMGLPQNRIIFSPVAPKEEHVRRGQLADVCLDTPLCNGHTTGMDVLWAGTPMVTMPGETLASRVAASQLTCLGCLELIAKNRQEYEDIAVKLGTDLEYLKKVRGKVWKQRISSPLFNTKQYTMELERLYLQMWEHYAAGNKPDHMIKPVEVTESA

B1: split OGA (N2+C3) (enzyme)
chain 1: MEQKLISEEDLAIAMVQKESQATLEERESELSSNPAASAGASLEPPAAPAPGEDNPAGAGGAAVAGAAGGARRFLCGVVEGFYGRPWVMEQRKELFRRLQKWELNTYLYAPKDDYKHRMFWREMYSVEEAEQLMTLISAAREYEIEFIYAISPGLDITFSNPKEVSTLKRKLDQVSQFGCRSFALLFDDIDHNMCAADKEVFSSFAHAQVSITNEIYQYLGEPETFLFCPTEYCGTFCYPNVSQSPYLRTVGEKLLPGIEVLWTGPKVVSKEIPVESIEEVSKIIKRAPVIWDNIHANDYDQKRLFLGPYKGRSTELIPRLKGVLTNPNCEFEANYVAIHTLATWYKSNMNGVRKDVVMTDSEDSTVSIQIKLENEGSDEDIETDVLYSPQMALKLALTEWLQEFGVPHQYSSR
chain 2: MAYPYDVPDYAAIAEKPLYTAEPVTLEDLQLLADLFYLPYEHGPKGAQMLREFQWLRANSSVVSVNCKGKDSEKIEEWRSRAAKFEEMCGLVMGMFTRLSNCANRTILYDMYSYVWDIKSIMSMVKSFVQWLGCRSHSSAQFLIGDQEPWAFRGGLAGEFQRLLPIDGANDLFFQPP
notes: Two co-expressed fragments
B2: fl-OGA: Full length OGA with a myc tag (SEQ ID NO: 1) (protein)
chain: MASMQKLISEEDLLMAMEARIRSTVQKESQATLEERESELSSNPAASAGASLEPPAAPAPGEDNPAGAGGAAVAGAAGGARRFLCGVVEGFYGRPWVMEQRKELFRRLQKWELNTYLYAPKDDYKHRMFWREMYSVEEAEQLMTLISAAREYEIEFIYAISPGLDITFSNPKEVSTLKRKLDQVSQFGCRSFALLFDDIDHNMCAADKEVFSSFAHAQVSITNEIYQYLGEPETFLFCPTEYCGTFCYPNVSQSPYLRTVGEKLLPGIEVLWTGPKVVSKEIPVESIEEVSKIIKRAPVIWDNIHANDYDQKRLFLGPYKGRSTELIPRLKGVLTNPNCEFEANYVAIHTLATWYKSNMNGVRKDVVMTDSEDSTVSIQIKLENEGSDEDIETDVLYSPQMALKLALTEWLQEFGVPHQYSSRQVAHSGAKASVVDGTPLVAAPSLNATTVVTTVYQEPIMSQGAALSGEPTTLTKEEEKKQPDEEPMDMVVEKQEETDHKNDNQILSEIVEAKMAEELKPMDTDKESIAESKSPEMSMQEDCISDIAPMQTDEQTNKEQFVPGPNEKPLYTAEPVTLEDLQLLADLFYLPYEHGPKGAQMLREFQWLRANSSVVSVNCKGKDSEKIEEWRSRAAKFEEMCGLVMGMFTRLSNCANRTILYDMYSYVWDIKSIMSMVKSFVQWLGCRSHSSAQFLIGDQEPWAFRGGLAGEFQRLLPIDGANDLFFQPPPLTPTSKVYTIRPYFPKDEASVYKICREMYDDGVGLPFQSQPDLIGDKLVGGLLSLSLDYCFVLEDEDGICGYALGTVDVTPFIKKCKISWIPFMQEKYTKPNGDKELSEAEKIMLSFHEEQEVLPETFLANFPSLIKMDIHKKVTDPSVAKSMMACLLSSLKANGSRGAFCEVRPDDKRILEFYSKLGCFEIAKMEGFPKDVVILGRSL
modifications: myc tag

Legend:
[1] = biological target: T1, OGT with C-terminal His tag; test: co-immunoprecipitation with beads against the His tag of OGT from HEK 293T lysates, immunoblot
Method: Overexpressed OGT and its interacting proteins were co-immunoprecipitated by beads against His tag. Whole cell lysates and co-immunoprecipitated proteins were analyzed by immunoblotting assays using the indicated antibodies. Anti-myc and anti-HA blots detect expression of full-length OGA (fl-OGA), N-terminal fragment, and C-terminal fragment, respectively. The data are representative of two biological replicates.
For immunoprecipitation of proteins with His tag, cells were lysed in a buffer containing 50 mM Tris HCl pH 8.0, 150 mM NaCl, 1% Triton X-100, 5% glycerol, 1× protease inhibitor cocktail and 10 μM Thiamet-G on ice for 20 min. Cell lysates with equal amounts of protein were diluted with wash buffer (50 mM Tris HCl pH 8.0, 150 mM NaCl, 0.01% Tween-20) and incubated with pre-washed His-Tag Dynabeads (Invitrogen, 10103D) at room temperature for 20 min with mixing, following the manufacturer's instructions. After washed 4 times with wash buffer, the enriched proteins were eluted with elution buffer (300 mM Imidazole, 50 mM Tris HCl pH 8.0, 150 mM NaCl, 0.01% Tween-20) on a shaker for 10 min at room temperature.

[2] = test system: endogenous CREB; test: Mass shift assay of O-GlcNAcylation on endogenous CREB (off-target marker); assay type: cell-based, human; conditions: untargeted off-target marker, HEK 293T cells
Method: (§1) For immunoblotting analysis, proteins were transferred to a nitrocellulose membrane using iBlot (Thermo Scientific). Membranes were blocked with Tris buffered saline containing 0.1% Tween-20 and 5% BSA and incubated with the primary antibodies (1:1000 dilution) and the secondary antibodies (1:10,000 dilution) sequentially. Immunoblot images were captured by Azure Imager C600. Analysis of immunoblots was conducted with Fiji ImageJ. All IR fluorescence western blot images are converted into grayscale images by Fiji ImageJ. The unsaturated exposure of immunoblot images was used for quantification with the appropriate loading controls as standards. Statistical analysis of the data was performed with Prism 8, using data from at least three independent experiments.
Purification of GalT1 (Y289L) enzyme and labeling of O-GlcNAcylated proteins with GalNAz were performed according to the procedure of Hsieh-Wilson and co-workers (Thompson, J. W., Griffin, M. E. & Hsieh-Wilson, L. C. Methods for the Detection, Study, and Dynamic Profiling of O-GlcNAc Glycosylation. Methods Enzymol. 2018, 598, 101-135). Briefly, cell samples in 6-well plates or 15-cm dishes were harvested and washed by PBS once. The lysis buffer (PBS with 2% SDS) was added into cell pellets and heated for 5 min at 95° C., followed by the sonication to sheer DNA. Protein concentrations were determined by BCA assay. […]

[3] = test system: global O-GlcNAcylation; test: Global O-GlcNAcylation level in whole cell lysate, anti-O-GlcNAc (RL2) immunoblot; assay type: cell-based, human; conditions: HEK 293T whole cell lysate; OSMI-4b 25 μM for 30 h
Method: After 36-48 h of transfection, cells were harvested and washed with PBS once. Cells were lysed with M-PER lysis buffer containing 1× protease inhibitor cocktail and 10 μM Thiamet-G unless otherwise noted. Protein concentrations were determined by the BCA assay kit (G-Biosciences, 786) on a multi-mode microplate reader FilterMax F3 (Molecular Devices LLC, Sunnyvale, CA).
as §1

[4] = test system: O-GlcNAcylated proteome; test: Quantitative TMT mass spectrometry of enriched O-GlcNAcylated proteome; assay type: cell-based, human; conditions: co-expression of GFP-Nup62, versus inactive nGFP-splitOGA(D174N), n=2
Method: Purification of GalT1 (Y289L) enzyme and labeling of O-GlcNAcylated proteins with GalNAz were performed according to the procedure of Hsieh-Wilson and co-workers (Thompson, J. W., Griffin, M. E. & Hsieh-Wilson, L. C. Methods for the Detection, Study, and Dynamic Profiling of O-GlcNAc Glycosylation. Methods Enzymol. 2018, 598, 101-135). Briefly, cell samples in 6-well plates or 15-cm dishes were harvested and washed by PBS once. The lysis buffer (PBS with 2% SDS) was added into cell pellets and heated for 5 min at 95° C., followed by the sonication to sheer DNA. Protein concentrations were determined by BCA assay. Cell lysates were reduced and alkylated with 25 mM DTT at 95° C. for 5 min and 50 mM iodoacetamide at room temperature for 1 h respectively. Proteins were precipitated by the methanol/chloroform solution (aqueous phase:CH3OH:CHCl3=4:4:1) and resuspended in 1% SDS, 20 mM HEPES (pH 7.9) buffer with a concentration of 3.75 mg/mL. For 150 μg proteins, H2O (49 μL), 2.5×GalT labeling buffer (80 μL, final concentrations: 50 mM NaCl, 20 mM HEPES, 2% NP-40, pH 7.9), 100 mM MnCl2 (11 μL), 500 μM UDP-GalNAz (10 μL), 2 mg/mL GalT1 (Y289L) (10 μL) were added into cell lysates orderly. […]
For quantitative proteomics, after reaction with Biotin-Alkyne probe, proteins were precipitated and resuspended in 400 μL PBS containing 2% SDS. […]

Row | Molecule | binding result [1] | O-GlcNAcylation level on endogenous CREB [2] | global O-GlcNAcylation level [3] | change of enriched O-GlcNAcylated protein abundance (global proteome) [4]
1 | B1 | no binding |  |  | 
2 | B2 |  | reduced O-GlcNAc on CREB and the whole proteome | global reduction of O-GlcNAc; also recorded: reduced O-GlcNAc on CREB and the whole proteome | globally decreased O-GlcNAcylated proteins
